Assays:
[1] = molecular target: Recombinant Tat (86 residues, BH10 isolate) (HIV-1 (BH10 isolate)) (UniProt P69697); test: SPR
[2] = molecular target: Recombinant human CypA (human) (UniProt P62937); test: MST
[3] = molecular target: Tat-CypA complex formed beforehand (HIV-1 (BH10 isolate) | human) (UniProt P69697); test: MST
[4] = molecular target: Tat-CypA complex formed beforehand (HIV-1 (BH10 isolate) | human) (UniProt P69697); test: SPR
[5] = molecular target: CypA-CA complex formed beforehand (human | HIV-1) (UniProt P62937); test: MST

CypA-CA complex formed beforehand (from UniProt P62937 1-165)
Kd [1]: 95 nM

Recombinant HIV-1 capsid protein (CA) (natural protein)
Kd [2]: 8300 nM
Kd [3]: 5500 nM
Kd [4]: 110 nM

Recombinant Tat (86 residues, BH10 isolate) (from UniProt P69697 1-86) (natural protein)
Kd [5]: 55 nM
